Results published in US12622945B2, “Hard tissue therapeutics” (OrthoTrophix, Inc., priority 2020, dated 2026).
Where no end group is shown, it is not given here.

Columns and labels:
subjects with knee OA = conditions: cited from earlier work
integrin αvβ3 = molecular target: T1, integrin αvβ3 (Homo sapiens, UniProt P05106+P06756); experiment: Competition ELISA with biotinylated RGD-Knottin, integrin αvβ3; assay type: binding
T1 construct: purchased R&D Systems
Method: All integrins used in this study contained the human sequence.
The binding assay was conducted as a competition ELISA using biotinylated Knottin and unlabeled peptides.
Methods were carried out as follows, as described by Bernhagen 2017.
Incubation and washing buffers were prepared using standard protocols. Recombinant human integrins were purchased from R&D Systems (Minneapolis, U.S.A.). Strep-HRP (Streptavidin-Horseradish Peroxidase conjugate, Southern-Biotech, Birmingham, U.S.A.), and rabbit anti-mouse-HRP (Southern-Biotech, Birmingham, U.S.A.) were diluted 1:200-1:1000 for ELISA experiments.
All integrins were dissolved according to manufacturer's protocol and stored in 25 μL aliquots of 100 μg/mL in PBS. For coating of one 96 well plate, 2 aliquots were thawed and dissolved in 9.95 mL of cold coating buffer for a 0.5 μg/mL solution.
After coating, the plates were subsequently sealed and stored at 4° C. overnight. […]
The following washing and incubation steps were performed according to manuscript. […] Peptides, whose integrin binding strength were to be determined, were mixed in 12 different concentrations (each 3-fold dilutions) with a fixed concentration of RGD-Knottin (both in PBS, 15 min, room temperature), followed by incubation of the plates with peptide/RGD-Knottin solutions.
Substrate buffer incubation and absorbance measurements were identical to that for binding ELISA. […]

human and rat bone cells = conditions: human and rat/murine orthologues; cited from earlier work
[1] = molecular target: T2, recombinant human integrin αvβ6 (human, UniProt P06756 31-992; P18564 22-707); experiment: competition ELISA with biotinylated RGD-Knottin on coated integrin
T2 construct: Bought from R&D Systems

[2] = molecular target: T3, recombinant human integrin α1β1 (human, UniProt P56199 29-1141; P05556 21-728); experiment: as above
T3 construct: Bought from R&D Systems

[3] = molecular target: T4, recombinant human integrin α2β1 (human, UniProt P17301 30-1132; P05556 21-728); experiment: as above
T4 construct: Bought from R&D Systems

[4] = molecular target: T5, recombinant human integrin αvβ1 (human, UniProt P06756 31-992; P05556 21-728); experiment: as above
T5 construct: Bought from R&D Systems

[5] = molecular target: T6, recombinant human integrin αvβ5 (human, UniProt P06756 31-992; P18084 24-719); experiment: as above
T6 construct: Bought from R&D Systems

[6] = molecular target: T7, recombinant human integrin αvβ8 (human, UniProt P06756 31-992; P26012 43-684); experiment: as above
T7 construct: Bought from R&D Systems

[7] = molecular target: T8, recombinant human integrin αvβ3 (human, UniProt P06756 31-992; P05106 27-718); experiment: competition ELISA; coated integrin, biotinylated RGD-Knottin as competitor
T8 construct: Bought from R&D Systems

[8] = molecular target: T9, recombinant human integrin α10β1 (human, UniProt O75578 23-1122; P05556 21-728, limits assumed); experiment: initial integrin binding screen
T9 construct: Bought from R&D Systems; Named only for the initial screening

[9] = molecular target: T10, recombinant human integrin α4β1 (human, UniProt P13612 34-970; P05556 21-728, limits assumed); experiment: initial integrin binding screen
T10 construct: Bought from R&D Systems; Named only for the initial screening

[10] = molecular target: T11, recombinant human integrin α6β1 (human, UniProt P23229 24-1011; P05556 21-728, limits assumed); experiment: initial integrin binding screen
T11 construct: Bought from R&D Systems; Named only for the initial screening

[11] = molecular target: T12, recombinant human integrin α3β1 (human, UniProt P26006 33-991; P05556 21-728); experiment: initial integrin binding screen
T12 construct: Bought from R&D Systems; Named only for the initial screening

[12] = molecular target: T13, recombinant human integrin α9β1 (human, UniProt Q13797 30-981; P05556 21-728, limits assumed); experiment: initial integrin binding screen
T13 construct: Bought from R&D Systems; Named only for the initial screening

[13] = molecular target: T14, recombinant human integrin α5β1 (human, UniProt P08648 42-995; P05556 21-728); experiment: initial integrin binding screen
T14 construct: Bought from R&D Systems; Named only for the initial screening

[14] = molecular target: T2, recombinant human integrin αvβ6; experiment: competition ELISA with Knottin; reference integrin αvβ3
[15] = molecular target: T3, recombinant human integrin α1β1; experiment: as above
[16] = molecular target: T4, recombinant human integrin α2β1; experiment: as above
[17] = molecular target: T5, recombinant human integrin αvβ1; experiment: as above
[18] = molecular target: T7, recombinant human integrin αvβ8; experiment: as above
[19] = molecular target: T9, recombinant human integrin α10β1; experiment: binding study with Knottin; reference integrin αvβ3
[20] = molecular target: T10, recombinant human integrin α4β1; experiment: as above
[21] = molecular target: T11, recombinant human integrin α6β1; experiment: as above
[22] = molecular target: T12, recombinant human integrin α3β1; experiment: as above
[23] = molecular target: T13, recombinant human integrin α9β1; experiment: as above
[24] = molecular target: T14, recombinant human integrin α5β1; experiment: as above
[25] = molecular target: T2, recombinant human integrin αvβ6; experiment: integrin binding screen / competition ELISA with RGD-Knottin
[26] = molecular target: T3, recombinant human integrin α1β1; experiment: as above
[27] = molecular target: T4, recombinant human integrin α2β1; experiment: as above
[28] = molecular target: T5, recombinant human integrin αvβ1; experiment: as above
[29] = molecular target: T7, recombinant human integrin αvβ8; experiment: as above
[30] = molecular target: T8, recombinant human integrin αvβ3; experiment: competition ELISA; coated integrin, biotinylated RGD-Knottin as competitor (FIG. 2)
[31] = molecular target: T8, recombinant human integrin αvβ3; experiment: competition ELISA; coated integrin, biotinylated RGD-Knottin as competitor (FIG. 4)

O=P(O)(O)C(O)(Cc1cccnc1)P(=O)(O)O [risedronate]
effects on pain (subjects with knee OA; n=2483, Bingham 2006): favoring placebo over active drug

N#Cc1c(N(CC(=O)[O-])CC(=O)[O-])sc(C(=O)[O-])c1CC(=O)[O-].[Sr+2].[Sr+2] [strontium ranelate]
risk of myocardial infarction (subjects with knee OA; in vivo): increase the risk of myocardial infarction

GFQDSLDSNRQDPGTDPEKGIDF-NH2 [SEQ ID No: 15]
binding affinity (IC50) of the peptide and integrin αvβ3 (integrin αvβ3; peptide concentration giving 50% inhibition of biotinylated knottin binding, triplicate): no binding affinity within the limits of the binding assay | IC50 (integrin αvβ3; read-out: binding affinity (IC50) of the peptide and integrin αvβ3): > 3.94 mM

PDLLVRGDNDVPPFSGDGQHFMH [SEQ ID No: 14]
biological activities in the bone cells of the other species (human and rat bone cells): interchangeably show biological activities in the bone cells of the other species

B1: scrambled peptide of SEQ ID No: 15 (peptide)
peptide: GFQDSLDSNRQDPGTDPEKGIDF-NH2
notes: Synthetic, made on a Rink-amide resin; also called scramble peptide
binding result [1]: no binding | binding result [2]: no binding | binding result [3]: no binding | binding result [4]: no binding | binding result [5]: no binding | binding result [6]: no binding

TDLQERGDNDISPFSGDGQPFKD-NH2 (also called human orthologue) [peptide of SEQ ID No: 10 (TPX-100)]
IC50 [7]: ~30 µg/mL | binding result [8]: no binding | binding result [9]: no binding | binding result [10]: no binding | binding result [11]: no binding | binding result [12]: no binding | binding result [13]: no binding | fold by which the binding affinity to αvβ3 is higher than to this integrin [14]: ≥ 300 times | fold by which the binding affinity to αvβ3 is higher than to this integrin [15]: ≥ 300 times | fold by which the binding affinity to αvβ3 is higher than to this integrin [16]: ≥ 300 times | fold by which the binding affinity to αvβ3 is higher than to this integrin [17]: ≥ 300 times | fold by which the binding affinity to αvβ3 is higher than to this integrin [18]: ≥ 300 times | fold by which the binding affinity to αvβ3 is higher than to this integrin [19]: ≥ 300 times | fold by which the binding affinity to αvβ3 is higher than to this integrin [20]: ≥ 300 times | fold by which the binding affinity to αvβ3 is higher than to this integrin [21]: ≥ 300 times | fold by which the binding affinity to αvβ3 is higher than to this integrin [22]: ≥ 300 times | fold by which the binding affinity to αvβ3 is higher than to this integrin [23]: ≥ 300 times | fold by which the binding affinity to αvβ3 is higher than to this integrin [24]: ≥ 300 times | binding result [25]: no binding | binding result [26]: no binding | binding result [27]: no binding | binding result [28]: no binding | binding result [29]: no binding | IC50 [30]: ~33 µg/mL

PDLQERGDNDISPFSGDGQPFKD-NH2 [peptide of SEQ ID No: 12 (canine orthologue of TPX-100)]
IC50 [31]: ~23 µg/mL | fold by which the binding affinity to αvβ3 is higher than to this integrin [14]: ≥ 300 times | fold by which the binding affinity to αvβ3 is higher than to this integrin [15]: ≥ 300 times | fold by which the binding affinity to αvβ3 is higher than to this integrin [16]: ≥ 300 times | fold by which the binding affinity to αvβ3 is higher than to this integrin [17]: ≥ 300 times | fold by which the binding affinity to αvβ3 is higher than to this integrin [18]: ≥ 300 times | fold by which the binding affinity to αvβ3 is higher than to this integrin [19]: ≥ 300 times | fold by which the binding affinity to αvβ3 is higher than to this integrin [20]: ≥ 300 times | fold by which the binding affinity to αvβ3 is higher than to this integrin [21]: ≥ 300 times | fold by which the binding affinity to αvβ3 is higher than to this integrin [22]: ≥ 300 times | fold by which the binding affinity to αvβ3 is higher than to this integrin [23]: ≥ 300 times | fold by which the binding affinity to αvβ3 is higher than to this integrin [24]: ≥ 300 times
